First the molecules themselves.
B1: His6–Ypt32p (natural protein)
chain: MSNEDYGYDYDYLFKIVLIGDSGVGKSNLLSRFTTDEFNIESKSTIGVEFATRTIEVENKKIKAQIWDTAGQERYRAITSAYYRGAVGALIVYDISKSSSYENCNHWLTELRENADDNVAVGLIGNKSDLAHLRAVPTDEAKNFAMENQMLFTETSALNSDNVDKAFRELIVAIFQMVSKHQVDLSGSGTNNMGSNGAPKGPTISLTPAPKEDKKKKSSNCC
B2: GST–Sec2(aa 1–160)p (domain or fragment)
chain: MDASEEAKRVSIQVTSLSTQLIESVDKQSHLEEQLNKSLKTIASQKAAIENYNQLKEDYNTLKRELSDRDDEVKRLREDIAKENELRTKAEEEADKLNKEVEDLTASLFDEANNMVADARKEKYAIEILNKRLTEQLREKDTLLDTLTLQLKNLKKVMHS
B3: His6–Sec4p (natural protein)
chain: MSGLRTVSASSGNGKSYDSIMKILLIGDSGVGKSCLLVRFVEDKFNPSFITTIGIDFKIKTVDINGKKVKLQLWDTAGQERFRTITTAYYRGAMGIILVYDVTDERTFTNIKQWFKTVNEHANDEAQLLLVGNKSDMETRVVTADQGEALAKELGIPFIESSAKNDDNVNEIFFTLAKLIQEKIDSNKLVGVGNGKEGNISINSGSGNSSKSNCC

The target of experiment [1] is T1, Ypt32p (Saccharomyces cerevisiae, UniProt P51996).
T1 sequence (P51996 2-222): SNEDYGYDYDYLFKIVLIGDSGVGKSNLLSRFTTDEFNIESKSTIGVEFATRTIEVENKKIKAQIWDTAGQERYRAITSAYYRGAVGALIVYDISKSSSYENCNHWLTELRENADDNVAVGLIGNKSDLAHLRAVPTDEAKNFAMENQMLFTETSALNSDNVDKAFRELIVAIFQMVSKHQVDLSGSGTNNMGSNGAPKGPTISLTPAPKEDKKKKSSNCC
The experiment is described as follows: GTP hydrolysis. Conditions: with stoichiometric Sec2p (GAP activity). Type of experiment: biochemical.

Experiment [2] concerns the target T2, GST–Sec2-70 (aa 1–508) (S. cerevisiae, UniProt P17065 1-508).
T2 sequence: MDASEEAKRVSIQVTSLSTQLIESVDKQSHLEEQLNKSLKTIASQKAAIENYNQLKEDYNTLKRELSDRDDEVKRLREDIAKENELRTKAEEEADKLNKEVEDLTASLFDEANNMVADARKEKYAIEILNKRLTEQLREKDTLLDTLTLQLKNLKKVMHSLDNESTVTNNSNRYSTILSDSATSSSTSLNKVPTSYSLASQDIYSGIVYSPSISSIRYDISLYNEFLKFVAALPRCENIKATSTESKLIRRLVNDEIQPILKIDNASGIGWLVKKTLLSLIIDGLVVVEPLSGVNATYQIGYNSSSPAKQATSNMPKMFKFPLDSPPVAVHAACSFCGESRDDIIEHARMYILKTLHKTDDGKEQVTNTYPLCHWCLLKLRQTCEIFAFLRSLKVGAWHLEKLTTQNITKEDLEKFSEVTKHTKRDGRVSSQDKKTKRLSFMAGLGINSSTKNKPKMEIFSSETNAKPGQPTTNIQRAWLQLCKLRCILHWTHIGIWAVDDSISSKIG
The experiment is described as follows: pull-down.

In experiment [3] the target is T3, GST–Sec2(aa 161–759) (S. cerevisiae, UniProt P17065 161-759).
T3 sequence: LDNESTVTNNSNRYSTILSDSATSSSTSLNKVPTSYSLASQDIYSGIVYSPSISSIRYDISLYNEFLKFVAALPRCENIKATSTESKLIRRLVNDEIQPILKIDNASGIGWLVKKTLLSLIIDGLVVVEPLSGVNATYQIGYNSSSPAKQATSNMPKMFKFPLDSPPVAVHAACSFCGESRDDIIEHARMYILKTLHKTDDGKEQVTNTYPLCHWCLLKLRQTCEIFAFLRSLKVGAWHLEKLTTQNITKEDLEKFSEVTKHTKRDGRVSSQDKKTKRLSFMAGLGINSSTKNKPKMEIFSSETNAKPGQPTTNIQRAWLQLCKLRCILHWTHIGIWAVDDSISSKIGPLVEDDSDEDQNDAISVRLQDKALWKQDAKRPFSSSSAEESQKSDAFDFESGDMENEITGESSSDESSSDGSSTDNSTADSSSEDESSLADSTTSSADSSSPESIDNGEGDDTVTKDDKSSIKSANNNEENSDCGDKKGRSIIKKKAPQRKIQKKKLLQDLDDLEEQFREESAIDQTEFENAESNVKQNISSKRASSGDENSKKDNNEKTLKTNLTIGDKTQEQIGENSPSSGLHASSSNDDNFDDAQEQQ
Kind of experiment: pull-down.

The target in experiment [4] is T4, GST–Sec2p (full-length) (S. cerevisiae, UniProt P17065 1-759).
T4 sequence: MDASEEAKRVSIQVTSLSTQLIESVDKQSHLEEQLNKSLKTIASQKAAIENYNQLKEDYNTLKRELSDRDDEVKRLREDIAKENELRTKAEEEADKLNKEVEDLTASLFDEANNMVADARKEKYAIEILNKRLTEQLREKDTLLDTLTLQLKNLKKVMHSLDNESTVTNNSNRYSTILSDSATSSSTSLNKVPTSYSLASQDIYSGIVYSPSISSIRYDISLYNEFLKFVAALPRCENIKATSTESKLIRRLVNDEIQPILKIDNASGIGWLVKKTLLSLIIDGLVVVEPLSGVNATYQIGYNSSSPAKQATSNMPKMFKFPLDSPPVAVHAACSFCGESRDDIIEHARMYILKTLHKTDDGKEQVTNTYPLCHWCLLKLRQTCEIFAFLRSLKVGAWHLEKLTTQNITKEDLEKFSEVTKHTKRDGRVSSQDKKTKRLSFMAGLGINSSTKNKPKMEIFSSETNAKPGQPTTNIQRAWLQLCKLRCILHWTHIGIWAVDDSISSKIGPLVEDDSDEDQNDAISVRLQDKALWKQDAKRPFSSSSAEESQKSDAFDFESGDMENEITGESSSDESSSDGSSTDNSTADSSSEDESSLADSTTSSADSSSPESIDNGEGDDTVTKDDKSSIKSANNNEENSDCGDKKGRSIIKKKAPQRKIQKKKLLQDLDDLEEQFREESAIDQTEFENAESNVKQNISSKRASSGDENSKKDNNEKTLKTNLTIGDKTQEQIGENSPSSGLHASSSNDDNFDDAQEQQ
The experiment is described as follows: pull-down.

The target of experiment [5] is T5, GST–Sec2-59(aa 1–374)p (S. cerevisiae, UniProt P17065 1-374).
T5 sequence: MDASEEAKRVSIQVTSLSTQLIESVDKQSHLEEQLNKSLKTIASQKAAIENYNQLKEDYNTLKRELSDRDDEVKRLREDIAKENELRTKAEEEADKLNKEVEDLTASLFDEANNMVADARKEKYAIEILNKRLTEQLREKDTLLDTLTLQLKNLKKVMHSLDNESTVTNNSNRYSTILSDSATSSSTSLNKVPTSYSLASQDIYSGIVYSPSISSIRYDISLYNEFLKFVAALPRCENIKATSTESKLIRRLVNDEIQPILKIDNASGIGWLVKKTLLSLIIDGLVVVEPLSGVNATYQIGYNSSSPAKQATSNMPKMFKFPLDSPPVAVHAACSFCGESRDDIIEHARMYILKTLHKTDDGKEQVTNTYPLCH
The experiment is described as follows: pull-down.

Experiment [6] has as its target B3. The experiment is described as follows: pull-down.

The record followed here is PMC2174052 (The Journal of Cell Biology, 2002).

For `Nc1nc2c(ncn2[C@@H]2O[C@H](COP(=O)(O)OP(=O)(O)OP(=O)(O)O)[C@@H](O)[C@H]2O)c(=O)[nH]1` [GTP], the GTP hydrolysis result in experiment [1] is “we observed a fivefold increase in GTP hydrolysis by Ypt32p (unpublished data)”.

As for B1, the binding result in experiment [2], in experiment [3], in experiment [4] and in experiment [5] was “binds” each time.

Regarding B2, the binding result in experiment [6] is on record as “binds”.

Consider B3, for which, in experiment [4], the “amount bound relative to Ypt32p (fold)” value came to 4 fold.
